Laboratory results from PMC4634812, “Characterization of proliferating cell nuclear antigen (PCNA) from pathogenic yeast Candida albicans and its functional analyses in S. Cerevisiae” (BMC Microbiology, 2015).

T1: Yeast DNA polymerase eta (ScPolη) (S. cerevisiae, UniProt Q04049 1-632)
T1 construct: DNA polymerase eta (Rad30) of S. cerevisiae; also called Rad30; ScRAD30; source: S. cerevisiae YRP654 (protease deficient), GAL-PGK-GST-ScRAD30 construct, purified by the same protocol as PCNA
T1 sequence (looked up): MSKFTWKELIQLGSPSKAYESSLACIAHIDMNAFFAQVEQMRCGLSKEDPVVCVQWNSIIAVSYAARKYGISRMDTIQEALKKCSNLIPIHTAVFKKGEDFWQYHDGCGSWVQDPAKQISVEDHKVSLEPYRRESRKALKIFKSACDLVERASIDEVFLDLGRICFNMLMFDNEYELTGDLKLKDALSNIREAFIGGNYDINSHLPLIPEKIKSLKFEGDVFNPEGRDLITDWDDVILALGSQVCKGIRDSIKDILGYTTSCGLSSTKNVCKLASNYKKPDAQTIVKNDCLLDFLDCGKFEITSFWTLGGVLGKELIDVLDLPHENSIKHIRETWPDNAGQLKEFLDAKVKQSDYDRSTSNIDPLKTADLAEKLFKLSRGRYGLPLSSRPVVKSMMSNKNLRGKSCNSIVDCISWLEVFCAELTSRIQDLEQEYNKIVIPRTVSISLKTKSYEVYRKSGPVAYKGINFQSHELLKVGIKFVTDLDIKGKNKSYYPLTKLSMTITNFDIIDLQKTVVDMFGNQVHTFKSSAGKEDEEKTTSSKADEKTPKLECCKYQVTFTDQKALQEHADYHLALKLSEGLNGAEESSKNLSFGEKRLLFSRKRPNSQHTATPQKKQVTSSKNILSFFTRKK

B1: Saccharomyces cerevisiae PCNA (ScPCNA), wild type (natural protein, S. cerevisiae)
chain: MLEAKFEEASLFKRIIDGFKDCVQLVNFQCKEDGIIAQAVDDSRVLLVSLEIGVEAFQEYRCDHPVTLGMDLTSLSKILRCGNNTDTLTLIADNTPDSIILLFEDTKKDRIAEYSLKLMDIDADFLKIEELQYDSTLSLPSSEFSKIVRDLSQLSDSINIMITKETIKFVADGDIGSGSVIIKPFVDMEHPETSIKLEMDQPVDLTFGAKYLLDIIKGSSLSDRVGIRLSSEAPALFQFDLKSGFLQFFLAPKFNDEE
notes: PCNA (POL30) of S. cerevisiae; The cloning of the bacterial ScPCNA construct is not described; also called yeast PCNA; ScPol30; source: E. coli BL21-DE3, purified (glutathione beads, eluted by Prescission protease)
B2: Candida albicans proliferating cell nuclear antigen (CaPCNA), wild type (natural protein, Candida albicans SC5314, UniProt Q5AMN0 1-259, looked up)
chain: MLEGKFEEAALLKKVVEAIKDCVKKCNFNCSEHGITVQAVDDSRVLLVSLLIGQTSFSEYRCDRDVTLGIDLESFSKIIKSANNEDFLTLLAEDSPDQIMAILEEKQKEKISEYSLKLMDIDSEFLQIDDMEYDAVVNMPSSDFAKLVRDLKNLSESLRVVVTKDSVKFTSEGDSGSGSVILKPYTNLKNERESVTISLDDPVDLTFGLKYLNDIVKAATLSDVITIKLADKTPALFEFKMQSGGYLRFYLAPKFDDDE
notes: PCNA (POL30) of Candida albicans SC5314, orf19.4616 of the Candida Genome Database, 259 amino acids; the orf was amplified from genomic DNA with primers from the start to the stop codon; A few residues of the Prescission site and the cloning site may remain at the N-terminus after cleavage; also called orf19.4616; CaO19.12086; source: E. coli BL21-DE3, purified (glutathione beads, eluted by …)

Key:
[1] = biological target: Candida albicans PCNA G178S mutant (Candida albicans SC5314) (UniProt Q5AMN0); assay: cross-linking; about 20 μg protein in 20 mM HEPES pH 7.5 with glutaraldehyde, 5 min at 37 °C, then 12 % SDS-PAGE
[2] = biological target: T1, Yeast DNA polymerase eta (ScPolη); assay: SPR; Bio-Rad XPR 36; CaPCNA, ScPCNA or BSA (~350 RU) amine-coupled on a GLC chip; ScPolη injected at 25-500nM; 25 mM HEPES pH 7.5, 10 % glycerol, 200 mM sodium acetate, 8 mM magnesium acetate, 1 mM DTT, 0.005 % Tween-20, 0.2 mg/ml BSA; 20 °C; 1:1 Langmuir fit; conditions: both partners purified
[3] = biological target: the molecule itself; assay: native gel or EMSA; 12 % non-denaturing polyacrylamide gel, ~1 μg of each purified protein, Coomassie stain
[4] = biological target: the molecule itself; assay: cross-linking; about 20 μg protein in 20 mM HEPES pH 7.5 with glutaraldehyde, 5 min at 37 °C, then 12 % SDS-PAGE
[5] = biological target: T1, Yeast DNA polymerase eta (ScPolη); assay: SPR; conditions: both partners purified

Molecule | stoichiometry N [1] | Kd [2] | koff [2] | stoichiometry N [3] | stoichiometry N [4] | Kd [5] | koff [5]
Candida albicans PCNA G178S mutant (from UniProt Q5AMN0 1-259) (natural protein) | 2 | – | – | – | – | – | –
B1 | – | 80.1 nM | 0.00138 s⁻¹ | 3 | – | – | –
B2 | – | – | – | 3 | 6 | 10.6 nM | 0.000166 s⁻¹
